T1: human podocalyxin as displayed on tumor cells (A172, SKOV3, MIA PaCa-2, MDA-MB-231, OVCAR10) (human, UniProt O00592 23-558, post-translational glycan recognised by Podo447 (O-linked, with beta-GalNAc that may be terminal; site not stated))
T1 construct: Endogenous podocalyxin of tumor cell lines, on cells, in lysates or in cryosections; also called tumor-associated Podocalyxin
T1 chain: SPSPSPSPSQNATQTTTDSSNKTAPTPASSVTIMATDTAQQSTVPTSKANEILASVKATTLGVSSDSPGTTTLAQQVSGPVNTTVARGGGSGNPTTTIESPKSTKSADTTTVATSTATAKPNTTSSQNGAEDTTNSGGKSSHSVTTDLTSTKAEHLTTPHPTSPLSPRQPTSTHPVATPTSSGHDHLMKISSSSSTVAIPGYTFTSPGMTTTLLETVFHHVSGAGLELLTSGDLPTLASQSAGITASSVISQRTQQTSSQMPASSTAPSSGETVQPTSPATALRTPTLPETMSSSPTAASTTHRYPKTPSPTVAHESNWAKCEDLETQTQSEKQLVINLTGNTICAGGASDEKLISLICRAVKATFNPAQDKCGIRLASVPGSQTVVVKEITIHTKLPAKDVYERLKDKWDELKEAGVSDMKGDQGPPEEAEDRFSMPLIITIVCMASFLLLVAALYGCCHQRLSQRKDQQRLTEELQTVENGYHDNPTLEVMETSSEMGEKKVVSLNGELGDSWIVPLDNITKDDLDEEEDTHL


Tests used:
[1] = biological target: WT Podocalyxin (on normal cells and tissues) (human) (UniProt O00592); experiment: flow cytometry, live 293 cells
[2] = biological target: WT Podocalyxin (on normal cells and tissues) (human) (UniProt O00592); experiment: flow cytometry, live HUVEC cells
cPodo/CHO = experiment: flow cytometry, live cPodo/CHO cells; Mock/CHO with this antibody: 2%
[3] = biological target: T1, human podocalyxin as displayed on tumor …; experiment: flow cytometry, titrated antibody on A172 cells, four-parameter fit
Protocol: (§1) Briefly, A172 cells were detached using cell dissociation solution (Sigma-C5914) and incubated with titrated purified antibodies in 96-well V-bottom plates. Antibody binding was detected using a goat anti-human IgG-Fc-Alexa 647 secondary antibody (Jackson 109-605-098) and the cells were analyzed on the Intellicyt high throughput flow cytometer (HTFC).
Table immediately above: Statistical data using Graphpad Prism analysis software representing the data presented above. Values were calculated using a variable slope (four parameters) non-linear regression analysis.

[4] = biological target: T1, human podocalyxin as displayed on tumor …; experiment: KinExA, titrated A172 cells with constant antibody, free antibody measured
Protocol: Example 13—Determination of Affinity of PODO447 and PODO83 for Cellular PODXL Antigens by Kinetic Exclusion Assay The concentration dependence of free anti-podo antibody as a function of A172 cell number was determined using a Sapidyne KinExA 3200. […] A172 cells and cell bound antibodies were then isolated by centrifugation. Supernatant containing free, unbound antibody was then transferred to a new tube. In the KinExA, a new column of PMMA beads coated with a Gt anti-IgG-Fc capture antibody is packed for each sample assayed. The supernatant containing free unbound antibody is passed over the column. The amount of free antibody captured on the PMMA beads was then measured using a Gt anti-IgG-Fc-A647. The concentration of free antibody over the entire 12 step dilution series was then used to determine the antibody Kd's using the standard Kd template in the KineExA Pro Software.
Table immediately above: Kinetic exclusion assay (KinExA) affinity determination of humanized and rabbit/human chimeric antibodies to Podocalyxin endogenously expressed on A172 cells. A172 cells were titrated and incubated with constant antibody concentrations and allowed to reach equilibrium with a 16 hour incubation. Free, unbound antibody in the supernatant was then captured on the KinExA 3200 using poly(methyl methacrylate) (PMMA) beads coated with goat anti-human IgG-Fc capture antibodies and detected with goat anti-human IgG-Fc-alexa 647 label.

[5] = biological target: T1, human podocalyxin as displayed on tumor …; experiment: flow cytometry titration on A172 cells, goat anti-human IgG-Fc-Alexa 647
Protocol: as §1

[6] = biological target: WT Podocalyxin (on normal cells and tissues) (human) (UniProt O00592); experiment: IHC, Normal Kidney
[7] = biological target: T1, human podocalyxin as displayed on tumor …; experiment: flow cytometry, MDA.MB.231 Podo KD
Protocol: (§2) Cells were cultured under continuous antibiotic selection with puromycin (4 µg/ml; Invitrogen, Burlington, ON) and G418 (lmg/ml; Calbiochem, Darmstadt, Germany). shRNA constructs were generously provided by Dr. John Wilkins (University of Manitoba, Winnipeg, MB) and the infections were performed by Michelle Turvey and Dr. Shaun McColl (University of Adelaide, Australia). 2.5×10^5 MIA PaCa-2 cells were seeded per well in a 6-well TC-Treated plate (Costar, cat#3516). After incubation overnight, cells were transfected with 10 nM siRNA following the guidelines of the Oligofectamine protocol (cat#12252-011, Invitrogen, Burlington, ON). Pre-Design and validated siRNA (PODXL siRNA, cat# s10770; Negative control No. 1 siRNA, cat#4390843) were obtained from Ambion (Thermo Fisher Scientific, Burlington, ON). Knock-downs were assessed by flow cytometry two days after transfection.
(§3) Sub-confluent cell lines were washed once with Ca^2+ and Mg^2+ free HBSS (Invitrogen, Carlsbad, Calif.) harvested with 0.25% Trypsin/EDTA (Invitrogen, Carlsbad, Calif.). Cells were quenched with normal growth media and centrifuged at 300×g for 5 minutes. Cells were washed once with FACS buffer (2% FBS, 2 mM EDTA, PBS, 0.05% NaAzide). Cells were blocked for 20 minutes at 4° C. in Blocking Buffer (2% rat serum, 2 µg/ml dilution of 2.4G2 (anti-CD16/CD32)) in a 96 well 'v' bottom plate. […]

[8] = biological target: T1, human podocalyxin as displayed on tumor …; experiment: flow cytometry, MIA PaCa-2 PODXL siRNA
Protocol: as §2, §3

[9] = biological target: WT Podocalyxin (on normal cells and tissues) (human) (UniProt O00592); experiment: IHC, Normal Cerebellum; Weak and Strong columns hold '-'
[10] = biological target: T1, human podocalyxin as displayed on tumor …; experiment: KinExA kinetic exclusion assay, antigen: MDA-MB-231 Cells

| Molecule | Live cell GeoMean FL [1] | Live cell GeoMean FL [2] | % Shifting (FL4) Live Cells (cPodo/CHO) [%] | LogIC50 [3] | Kd [4] [nM] | Kd High [4] [pM] | Kd Low [4] [pM] | EC50 (read off the curve) [5] [ng/mL] | IHC score Negative, cases of total [6] [%] | IHC score Weak, cases of total [6] [%] | decrease of binding on podocalyxin knockdown (fold) [7] [X] | decrease of binding on podocalyxin knockdown (fold) [8] [X] | IHC score Negative, cases of total [9] | Kd [10] [nM] | Kd High [10] [nM] | Kd Low [10] [pM] |
| --- | --- | --- | --- | --- | --- | --- | --- | --- | --- | --- | --- | --- | --- | --- | --- | --- |
| MsIgG2a (antibody) | 556 | 484 | 1 |  |  |  |  |  |  |  |  |  |  |  |  |  |
| Humanized Podo447 (humanized_podo447VH_hIgG1C with humanized_podo447VL6_hIgkC) (antibody, V domains shown, The labels R0943_A046 and CDRD-0103-001 are tied to this molecule only by the word 'Humanized'; also called R0943_A046 (Humanized); CDRD-0103-001 (Humanized)) VH: EVQLVESGGGLVQPGRSLRLSCTASGFSLSGYQMNWVRQAPGKGLEWVGYIWSDGGTDYTASVKGRFTISRDGSKSIAYLQMNSLKTEDTAVYYCAREGYWLGAFDPWGQGTSVTVSA VL: AAQLTQSPSPLSASVGDRVTITCQSSQSVHHKNDLAWYQQKPGKAPKLLIYYTSTLASGVPSRFSGSGSGTDFTLTISSLQPEDFATYYCAGVYEGSSDNRAFGGGTKVEIKR |  |  |  | 2.09 | 0.0144 | 45.9 | 4.59 | ~100 |  |  |  |  |  |  |  |  |

Next, values leading:

| Live cell GeoMean FL [1] | Live cell GeoMean FL [2] | % Shifting (FL4) Live Cells (cPodo/CHO) [%] | LogIC50 [3] | Kd [4] [nM] | Kd High [4] [pM] | Kd Low [4] [pM] | EC50 (read off the curve) [5] [ng/mL] | IHC score Negative, cases of total [6] [%] | IHC score Weak, cases of total [6] [%] | decrease of binding on podocalyxin knockdown (fold) [7] [X] | decrease of binding on podocalyxin knockdown (fold) [8] [X] | IHC score Negative, cases of total [9] | Kd [10] [nM] | Kd High [10] [nM] | Kd Low [10] [pM] | Molecule |
| --- | --- | --- | --- | --- | --- | --- | --- | --- | --- | --- | --- | --- | --- | --- | --- | --- |
| 446 | 489 |  |  |  |  |  |  |  |  |  |  |  |  |  |  | Control Rb/HuIgG1 (antibody) |
| 6710 | 3970 |  | 2.28 | 0.00757 | 24.9 | 2.3 | ~200 | 98 | 1.9 | 2.5 | 10 | 0 of 10 cases | 0.189 | 52.4 | 42.5 | Podo447 antibody, recombinant rabbit/human IgG1 chimera (antibody, V domains shown, also called anti-Podo) VH: QSLEESGGRLVTPGTPLTLTCTASGFSLSGYQMNWVRQAPGKGLEWIGYIWSDGGTDYASWAKGRFTISKTSSTTVDLKMTSLTTEDTATYFCAREGYWLGAFDPWGPGTLVTVSS VL: AAVLTQTPSPVSAAVGATVSVSCQSSQSVHHKNDLAWFQQKPGQPPKLLIYYTSTLASGVPSRFKGSGSGTQFTLTISDLECDDAATYYCAGVYEGSSDNRAFGGGTEVVVKR |
